Assay results as given in US20200283521A1 (GRANULAR THERAPEUTICS, published 2020).

Assays:
Assay in all cases: cell array, transfected fixed HEK293 cells
MSN = biological target: T1, MSN (human, UniProt P26038)
T1 construct: expressed in transfected HEK293 cells
Method: (§1) Transfection of all plasmids was confirmed by screening for the co-encoded marker ZS green (FIG. 13A).
(§2) Primary hits (duplicate spots) were identified by analysing fluorescence (AF647 and ZsGreenl) on ImageQuant. Vectors encoding all hits were sequenced to confirm their correct identities. […] Slides were analysed as above.

ZG16B = biological target: T2, ZG16B (human, UniProt Q96DA0)
T2 construct: expressed in transfected HEK293 cells
T2 sequence (looked up): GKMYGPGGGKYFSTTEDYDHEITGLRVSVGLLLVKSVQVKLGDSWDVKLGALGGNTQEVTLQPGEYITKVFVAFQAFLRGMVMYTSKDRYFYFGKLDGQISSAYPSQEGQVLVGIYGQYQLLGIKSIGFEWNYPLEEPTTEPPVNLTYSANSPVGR
Method: as §1, §2

PSAPL1 = biological target: T3, PSAPL1 (human, UniProt Q6NUJ1)
T3 construct: expressed in transfected HEK293 cells
T3 sequence (looked up): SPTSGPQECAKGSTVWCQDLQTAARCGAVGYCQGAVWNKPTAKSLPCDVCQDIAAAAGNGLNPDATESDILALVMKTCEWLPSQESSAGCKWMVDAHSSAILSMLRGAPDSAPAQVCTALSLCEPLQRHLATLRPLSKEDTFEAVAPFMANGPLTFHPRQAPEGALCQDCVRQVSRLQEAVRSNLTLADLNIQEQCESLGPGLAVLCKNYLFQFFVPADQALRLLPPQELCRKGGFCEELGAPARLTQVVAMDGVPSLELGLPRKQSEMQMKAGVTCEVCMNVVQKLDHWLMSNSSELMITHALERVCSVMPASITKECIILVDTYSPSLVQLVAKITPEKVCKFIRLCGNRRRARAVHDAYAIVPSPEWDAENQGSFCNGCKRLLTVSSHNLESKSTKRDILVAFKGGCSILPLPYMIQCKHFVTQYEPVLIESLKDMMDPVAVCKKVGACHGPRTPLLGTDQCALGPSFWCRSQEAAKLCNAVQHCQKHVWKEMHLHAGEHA
Method: as §1, §2

SLMAP = biological target: T4, SLMAP (human, UniProt Q14BN4)
T4 construct: expressed in transfected HEK293 cells
T4 sequence (looked up): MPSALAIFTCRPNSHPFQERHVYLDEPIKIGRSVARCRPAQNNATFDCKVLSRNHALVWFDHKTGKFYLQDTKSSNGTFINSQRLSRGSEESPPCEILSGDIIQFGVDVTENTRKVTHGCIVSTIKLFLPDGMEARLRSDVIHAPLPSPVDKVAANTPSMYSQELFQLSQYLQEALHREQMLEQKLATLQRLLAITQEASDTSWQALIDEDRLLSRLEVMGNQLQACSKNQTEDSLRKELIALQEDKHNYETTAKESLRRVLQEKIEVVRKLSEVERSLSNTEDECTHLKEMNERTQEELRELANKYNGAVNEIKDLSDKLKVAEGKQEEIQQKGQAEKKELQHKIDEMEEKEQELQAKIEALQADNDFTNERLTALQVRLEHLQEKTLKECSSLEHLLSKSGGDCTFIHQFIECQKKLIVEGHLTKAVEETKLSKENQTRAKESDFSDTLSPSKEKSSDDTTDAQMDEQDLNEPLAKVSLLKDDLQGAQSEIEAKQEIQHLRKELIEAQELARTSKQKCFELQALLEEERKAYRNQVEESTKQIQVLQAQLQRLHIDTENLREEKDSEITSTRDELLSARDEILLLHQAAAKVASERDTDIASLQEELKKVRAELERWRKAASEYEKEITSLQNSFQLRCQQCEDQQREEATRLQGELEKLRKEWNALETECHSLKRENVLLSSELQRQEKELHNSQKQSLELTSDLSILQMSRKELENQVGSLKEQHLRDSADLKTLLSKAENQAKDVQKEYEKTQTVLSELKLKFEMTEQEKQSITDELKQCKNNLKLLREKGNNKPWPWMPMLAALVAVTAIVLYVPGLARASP
Method: as §1, §2

BAIAP2L2 = biological target: T5, BAIAP2L2 (human, UniProt Q6UXY1)
T5 construct: expressed in transfected HEK293 cells
T5 sequence (looked up): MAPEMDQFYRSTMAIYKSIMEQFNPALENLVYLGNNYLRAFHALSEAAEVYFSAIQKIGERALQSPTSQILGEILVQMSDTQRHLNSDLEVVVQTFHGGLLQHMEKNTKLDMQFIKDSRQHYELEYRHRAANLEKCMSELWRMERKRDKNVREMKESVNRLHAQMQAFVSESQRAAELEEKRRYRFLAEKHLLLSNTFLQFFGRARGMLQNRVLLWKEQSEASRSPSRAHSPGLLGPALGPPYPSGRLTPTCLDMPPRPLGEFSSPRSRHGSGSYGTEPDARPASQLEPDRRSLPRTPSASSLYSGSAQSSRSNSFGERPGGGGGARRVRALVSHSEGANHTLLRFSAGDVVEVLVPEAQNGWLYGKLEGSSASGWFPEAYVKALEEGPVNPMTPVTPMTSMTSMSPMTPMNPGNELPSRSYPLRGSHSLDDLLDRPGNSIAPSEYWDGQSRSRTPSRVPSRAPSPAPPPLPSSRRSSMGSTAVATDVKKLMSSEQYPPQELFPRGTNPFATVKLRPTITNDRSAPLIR
Method: as §1, §2

KRT19 = biological target: T6, KRT19 (human, UniProt P08727)
T6 construct: expressed in transfected HEK293 cells
T6 sequence (looked up): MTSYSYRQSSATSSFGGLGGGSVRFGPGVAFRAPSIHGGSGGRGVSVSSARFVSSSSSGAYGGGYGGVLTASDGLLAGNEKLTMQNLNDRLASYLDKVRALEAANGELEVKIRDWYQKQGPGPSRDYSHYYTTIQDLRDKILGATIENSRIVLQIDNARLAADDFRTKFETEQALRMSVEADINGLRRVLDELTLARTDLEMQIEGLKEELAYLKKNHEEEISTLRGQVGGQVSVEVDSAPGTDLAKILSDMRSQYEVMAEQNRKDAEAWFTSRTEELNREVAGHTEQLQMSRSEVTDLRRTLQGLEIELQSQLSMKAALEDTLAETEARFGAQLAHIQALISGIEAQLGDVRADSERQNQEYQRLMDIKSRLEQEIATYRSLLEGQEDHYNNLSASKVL
Method: as §1, §2

T1 sequence (P26038 2-577 limits assumed): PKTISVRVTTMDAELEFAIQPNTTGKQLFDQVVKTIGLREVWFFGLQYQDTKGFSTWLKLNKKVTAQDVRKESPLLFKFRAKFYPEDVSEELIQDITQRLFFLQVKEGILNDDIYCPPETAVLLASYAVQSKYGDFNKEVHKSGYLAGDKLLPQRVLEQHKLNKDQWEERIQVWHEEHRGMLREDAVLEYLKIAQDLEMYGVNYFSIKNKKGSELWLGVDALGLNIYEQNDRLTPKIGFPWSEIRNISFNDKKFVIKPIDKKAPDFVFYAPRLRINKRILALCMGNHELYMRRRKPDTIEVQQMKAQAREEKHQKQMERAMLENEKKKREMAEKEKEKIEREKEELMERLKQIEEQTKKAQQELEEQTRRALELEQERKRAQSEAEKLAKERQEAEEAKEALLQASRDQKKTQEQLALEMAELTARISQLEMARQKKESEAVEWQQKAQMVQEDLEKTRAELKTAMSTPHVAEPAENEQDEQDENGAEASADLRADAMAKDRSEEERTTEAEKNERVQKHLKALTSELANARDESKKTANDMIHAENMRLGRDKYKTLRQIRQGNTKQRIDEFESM

binding result (MSN): no binding (tested: 2 µg/ml) | binding result (ZG16B): no binding (tested: 2 µg/ml) | binding result (PSAPL1): no binding (tested: 2 µg/ml) | binding result (SLMAP): no binding (tested: 2 µg/ml) | binding result (BAIAP2L2): no binding (tested: 2 µg/ml) | binding result (KRT19): no binding (tested: 2 µg/ml)
B1: humanized h37M, human IgG1 (antibody, V domains shown)
VH: QVQLVQSGAEVKKPGASVKLSCKASGYTFTDYYINWVRQAPGKGLEWIARIYPGSGNTYYNEKFKGRATLTADKSTSTAYMQLSSLRSEDTAVYFCARGVYYFDYWGQGTTVTVSS
VL: DIVMTQSPSSLSASVGDRVTITCKASQNVRTNVAWYQQKPGKAPKALIYSASYRYSGVPDRFTGSGSGTDFTLTISSLQPEDFADYFCQQYNSYPRTFGGGTKVEIK
notes: human IgG1; terbium-labelled as the tracer of the HTRF assays; also called C-KIT-h37M; h37M-IgG1
